Experimental data from patent US20210340207A1 (Merck Sharp & Dohme, published 2021).
*1 amine or outer side, *2 acyl side, *3 side chain or, on linkers, in order; H or OH if unused. Side-chain parts run from the residue outwards. [ ]: non-standard residue; d: D form. pAMF = para-azidomethylphenylalanine, [N-]=[N+]=NCc1ccc(C[C@H](N[*:1])C(=O)[*:2])cc1

Molecular target: T1, Cynomolgus/Rhesus IL-2Rβ, His tag (Table 10) (cynomolgus monkey / rhesus monkey, UniProt Q38J85 27-240)
T1 sequence: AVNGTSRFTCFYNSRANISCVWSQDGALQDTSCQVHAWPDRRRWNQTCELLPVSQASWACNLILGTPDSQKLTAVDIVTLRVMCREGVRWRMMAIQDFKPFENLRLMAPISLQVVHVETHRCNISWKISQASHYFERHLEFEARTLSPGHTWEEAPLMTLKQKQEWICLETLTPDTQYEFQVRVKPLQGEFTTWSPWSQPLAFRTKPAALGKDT
Assay: SPR (Biacore T200)
Method: A Surface Plasmon Resonance (SPR) assay on a Biacore T200 (GE Healthcare) instrument was used to determine the monovalent affinities of pegylated aldesleukin variants against polyhistidine-tagged or Fc-tagged IL-2 Receptors. Biacore T200 Evaluation Software was used to fit each titration series to a 1:1 binding model or steady state affinity. The association (kₒₙ, M⁻¹ s⁻¹) and dissociation (koff, s⁻¹) rate constants were determined for each set of titrations and used to calculate the dissociation constant, KD=koff/kₒₙ, of each sample against each receptor. koff/kₒₙ values are not reported herein.

B1: Ald_S4pAMF(PEG1)/R37A/F41K (CON1) (ligand)
chain: PTS[pAMF]([DBCO‑triazole-mPEG 30 kDa])STKKTQLQLEHLLLDLQMILNGINNYKNPKLTAMLTKKFYMPKKATELKHLQCLEEELKPLEEVLNLAQSKNFHLRPRDLISNINVIVLELKGSETTFMCEYADETATIVEFLNRWITFSQSIISTLT
modifications: not fully specified (bridges)
notes: also called Des-A1_IL-2_S4pAMF(PEG1)/R37A/F41K/C124S
Which “fold lower affinity than aldesleukin” value does the source give for B1 here?
Its value is 6 fold.
